Experimental data from patent US20250222105A1 (University of Texas, published 2025).
Substitutions are numbered along the chain they refer to.

B1: anti-ROR1 monoclonal antibody A148 (antibody, V domains shown)
VH: DVQLQESGPGLVKPSQSLSLTCSVSGYSITSGYYWNWIRQFPGNKLEWMGYISNDGSNKYKPSLKNRISITRDTSKNQFFLKLNSVTTEDTATYYCARFPLINYDPWLAYWGQGTLVTVSA
VL: DVLMTQTPLSLPVSLGDQASISCRSSQNVVHRNGNTYLEWYLQKPGQSPKLLIYKVSNRFSGVPDRFSGSGSGTDFTLKISRVEAEDLGVYYCFQGSHVPWTFGGGTKLEIK
notes: Mouse monoclonal antibody from hybridoma
B2: anti-ROR1 monoclonal antibody A89 (antibody, V domains shown)
VH: B1 VH with N36S, N84K
VL: B1 VL with N28S, V29I, R32S, K112N
notes: Mouse monoclonal antibody from hybridoma (BALB/c mice immunized with ROR1-expressing L cells)
B3: anti-ROR1 monoclonal antibody A129 (antibody, V domains shown)
VH: B1 VH with S25T, S53R, K59N, K61N, L108F
VL: B1 VL with T7A
notes: as for B1
B4: anti-ROR1 monoclonal antibody A140 (antibody, V domains shown)
VH: B1 VH with S57N, T88A
VL: B1 VL with N28S, V29I, R32S, K112N
notes: as for B1
B5: anti-ROR1 monoclonal antibody A97 (antibody, V domains shown)
VH: EVQLQQSGPELEKPGASVKISCKASGYSFIGYSMNWVRQSDGKSLEWIGNIDPYYGGTSYNLKFKGKATLTVDKSSSTAYMQLKSLTSEDSAVYYCARLGRGYFDYWGQGTTLTVSS
VL: DIVLTQSPATLSVTPGDSVSLSCRASQSITNNLHWYQQKSHESPRLLIKSASQSISGIPSRFSGSGSGTDFTLSINSVETEDFGMYFCQQSNSWPHTFGGGTKLEIK
notes: as for B1
B6: anti-ROR1 monoclonal antibody A130 (antibody, V domains shown)
VH: B1 VH with S25T, S53R, K59N, K61N, L108F
VL: ETTVTQSPASLSVATGEKVTIRCITSTDIDDDMNWYQQKPGEPPKLLISEANTLRPGVPSRFSSSGYGTDFVFTIENTLSEDVADYYCLQSYNMPLTFGAGTTLELK
notes: as for B1
B7: anti-ROR1 monoclonal antibody A142 (antibody, V domains shown)
VH: EVQLQQSGPDLVKPGASVKISCKASGYSFTGYYMHWVKQSHGKSLEWIGRVYPNNGGTSYNQKFKGKAILTVDKSSTTAYMELRSLTSEDSAVYYCALIHYYGFYSMDYWGQGTSVTVSS
VL: B1 VL with N28S, V29I, R32S, K112N
notes: as for B1

What follows are binders tested against T1, human receptor tyrosine kinase like orphan receptor 1 (ROR1) expressed on cells (human, UniProt Q01973 30-937) (assay: cell ELISA and flow cytometry on L cells transfected with human ROR1; also positive staining of ROR1+ lymphoma lines Jeko-1, SP-53, CA46).
T1 construct: whole, on cells; also called human ROR1; ROR1-L cells

Binding result, binds:
B1
B2
B3
B4
B5
B6
B7
